Laboratory results: paper PMC5567082

Molecular target: polyhistidine-tagged canine PD-L1 protein (cPD-L1-His) (dog)
Test: SPR; Biacore X100, CM5 chip, His Capture Kit: cPD-L1-His captured by immobilised anti-histidine antibody (approximately 400 RU); cPD-1-Ig or cCD80-Ig flowed over; HBS-EP+ running and dilution buffer; two state reaction model

Kd [nM]	Substance
24.3	recombinant canine CD80 protein fused to rabbit IgG Fc (cCD80-Ig) (Fc fusion)
25.4	recombinant canine PD-1 protein (cPD-1-Ig) (Fc fusion)
